B1: pgm: E. coli pgm (phosphoglucomutase), complemented on plasmid (protein, listed as Escherichia coli)
chain: MAIHNRAGQPAQQSDLINVAQLTAQYYVLKPEAGNAEHAVKFGTSGHRGSAARHSFNEPHILAIAQAIAEERAKNGITGPCYVGKDTHALSEPAFISVLEVLAANGVDVIVQENNGFTPTPAVSNAILVHNKKGGPLADGIVITPSHNPPEDGGIKYNPPNGGPADTNVTKVVEDRANALLADGLKGVKRISLDEAMASGHVKEQDLVQPFVEGLADIVDMAAIQKAGLTLGVDPLGGSGIEYWKRIGEYYNLNLTIVNDQVDQTFRFMHLDKDGAIRMDCSSECAMAGLLALRDKFDLAFANDPDYDRHGIVTPAGLMNPNHYLAVAINYLFQHRPQWGKDVAVGKTLVSSAMIDRVVNDLGRKLVEVPVGFKWFVDGLFDGSFGFGGEESAGASFLRFDGTPWSTDKDGIIMCLLAAEITAVTGKNPQEHYNELAKRFGAPSYNRLQAAATSAQKAALSKLSPEMVSASTLAGDPITARLTAAPGNGASIGGLKVMTDNGWFAARPSGTEDAYKIYCESFLGEEHRKQIEKEAVEIVSEVLKNA
B2: galU: E. coli galU (UTP-glucose-1-phosphate uridylyltransferase), complemented on plasmid (protein, listed as Escherichia coli)
chain: MAAINTKVKKAVIPVAGLGTRMLPATKAIPKEMLPLVDKPLIQYVVNECIAAGITEIVLVTHSSKNSIENHFDTSFELEAMLEKRVKRQLLDEVQSICPPHVTIMQVRQGLAKGLGHAVLCAHPVVGDEPVAVILPDVILDEYESDLSQDNLAEMIRRFDETGHSQIMVEPVADVTAYGVVDCKGVELAPGESVPMVGVVEKPKADVAPSNLAIVGRYVLSADIWPLLAKTPPGAGDEIQLTDAIDMLIEKETVEAYHMKGKSHDCGNKLGYMQAFVEYGIRHNTLGTEFKAWLEEEMGIKK
B3: pgm-galU: pgm and galU (SEQ ID NOS: 92 and 93) complemented together on plasmid (protein, listed as Escherichia coli)
chain 1: B1 chain
chain 2: B2 chain

Test system: steviol glycoside
Assay: steviol glycoside bioconversion with overexpressed genes complemented on plasmid
Format: cell-based, E. coli
Conditions: chassis strain with UGT SEQ ID NOS: 14 and 24; stevia leaf extract and glucose fed; 37° C., 48 hr; FIG. 2
Method: Other bacterial genes were overexpressed, and bioconversion tested as compared to the chassis strain expressing UGT enzymes of SEQ ID NOS: 14 and 24. […] Fold improvement is with respect to total steviol glycoside conversion. Stevia leaf extract and glucose were fed to the bioconversion strains. Bioconversion took place at 37° C. for 48 hr. Data were quantified by reverse phase LC DAD to quantify conversion of steviol glycosides.

| Molecule | improvement of total steviol glycoside conversion by gene complementation |
| --- | --- |
| adk: E. coli adk (adenylate kinase), complemented on plasmid | improved overall glycosylation |
| B1 | improved overall glycosylation |
| B2 | improved overall glycosylation |
| B3 | improved overall glycosylation |
